# Measured values as given in the supplement of paper PMC10065799, “High-throughput profiling of sequence recognition by tyrosine kinases and SH2 domains using bacterial peptide display” (eLife, 2023).
# Molecular target: c-Src SH2
# Assay: SH2 binding enrichment of the phosphorylated peptide, bacterial display (enrichment ratio); higher = better substrate or ligand; peptides without Tyr show the background
# 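Throughout, for SH2 binding enrichment of the phosphorylated peptide, bacterial display: peptide library displayed on the E. coli surface as eCPX fusions, selected cells deep-sequenced, score is each peptide's frequency after selection divided by its frequency in the input.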
row,Sequence,SH2 binding enrichment
1,YQLPYYNMVPS [BMPR1A_Y458],5.08
2,VMTSKYRGGGG [HBA1_Y141_L137M],0.691
3,FFSSEYHFVGG [CTSC_Y345_YF],0.756
4,HAVEDYQAIVD [CCT7_Y263_T259A],0.696
5,PDMHSYMVRYN [GRIN2D_Y732],0.613
6,DRTVHYVDEKG [IFT140_Y216_G212R],0.503
7,SSSAIYDNPNL [DCP1B_Y191],0.706
8,KRLDGYVLEGW [IGSF9_Y656_R661W],2.36
9,SHGQDYLAGNK [GSTA2_Y147_V149A],0.583
10,TIWDSYTTNKV [GNB1_Y85_I80T],0.388
11,SMAKYYASGIA [ACADSB_Y373_E376G],0.578
12,GRSTFYWPRPR [GAGE12J_Y10_YF],0.563
13,AFDNLYYWDQD [ERBB2_Y1221],0.446
14,VEKEKYVSFIS [JMJD1C_Y596_M591V_YF],0.633
15,PLRANYLIARV [HLCS_Y635_D634N],0.992
16,CKLVDYDSARH [BIN1_Y150_R145C],0.564

# Other lines, results leading:
row,SH2 binding enrichment,Sequence
1,1.2,DLNATYCTIQG [U2SURP_Y634_R635C]
2,0.735,MVIPNYSSWTE [UROC1_Y185_R188W]
3,0.851,KLLLKYSFHDV [RNF213_Y4141]
4,0.453,PRQRRYVFFFS [PTEN_Y174_S170R_YF]
5,0.521,LFLASYCIGGG [UBD_Y161_C160S]
6,0.468,EGGFAYVPLKD [PRIM2_Y208_D204G]
7,0.294,GSIQQYIYKQE [PRG4_Y1271]
8,0.516,EERKTYVNTTL [TEK_Y1102]
9,0.463,TEYIQYVRRKN [MAX_Y73_M74V]
10,0.394,PSSRDYKDNIK [PIGN_Y227_H229D]
11,0.691,FAKSVYWDNTL [NUP107_Y296_E298D_YF]
12,0.499,IDAICYYRMEN [NPHS2_Y194]
13,0.554,CEHRGCLYLAI [TEK_Y897_Y897C]

# Molecular target: Grb2 SH2 (UniProt P62993)
# Assay: as above
row,Sequence,SH2 binding enrichment
1,YQLPYYNMVPS [BMPR1A_Y458],11.4
2,VMTSKYRGGGG [HBA1_Y141_L137M],0.834
3,FFSSEYHFVGG [CTSC_Y345_YF],0.99
4,HAVEDYQAIVD [CCT7_Y263_T259A],1.09
5,PDMHSYMVRYN [GRIN2D_Y732],0.858
6,DRTVHYVDEKG [IFT140_Y216_G212R],0.979
7,SSSAIYDNPNL [DCP1B_Y191],0.688
8,KRLDGYVLEGW [IGSF9_Y656_R661W],0.844
9,SHGQDYLAGNK [GSTA2_Y147_V149A],1.11
10,TIWDSYTTNKV [GNB1_Y85_I80T],0.855
11,SMAKYYASGIA [ACADSB_Y373_E376G],0.771
12,GRSTFYWPRPR [GAGE12J_Y10_YF],0.844
13,AFDNLYYWDQD [ERBB2_Y1221],0.807
14,VEKEKYVSFIS [JMJD1C_Y596_M591V_YF],0.708
15,PLRANYLIARV [HLCS_Y635_D634N],1.27
16,CKLVDYDSARH [BIN1_Y150_R145C],0.845

# The next lines start with the values.
row,SH2 binding enrichment,Sequence
1,0.982,DLNATYCTIQG [U2SURP_Y634_R635C]
2,0.864,MVIPNYSSWTE [UROC1_Y185_R188W]
3,1.15,KLLLKYSFHDV [RNF213_Y4141]
4,0.861,PRQRRYVFFFS [PTEN_Y174_S170R_YF]
5,0.847,LFLASYCIGGG [UBD_Y161_C160S]
6,0.637,EGGFAYVPLKD [PRIM2_Y208_D204G]
7,0.919,GSIQQYIYKQE [PRG4_Y1271]
8,8.42,EERKTYVNTTL [TEK_Y1102]
9,0.834,TEYIQYVRRKN [MAX_Y73_M74V]
10,1.16,PSSRDYKDNIK [PIGN_Y227_H229D]
11,0.781,FAKSVYWDNTL [NUP107_Y296_E298D_YF]
12,0.71,IDAICYYRMEN [NPHS2_Y194]
13,0.811,CEHRGCLYLAI [TEK_Y897_Y897C]

# Molecular target: SHP2-C SH2
# Assay: as above
row,Sequence,SH2 binding enrichment
1,YQLPYYNMVPS [BMPR1A_Y458],1.73
2,VMTSKYRGGGG [HBA1_Y141_L137M],0.792
3,FFSSEYHFVGG [CTSC_Y345_YF],1.68
4,HAVEDYQAIVD [CCT7_Y263_T259A],0.768
5,PDMHSYMVRYN [GRIN2D_Y732],0.97
6,DRTVHYVDEKG [IFT140_Y216_G212R],0.916
7,SSSAIYDNPNL [DCP1B_Y191],0.53
8,KRLDGYVLEGW [IGSF9_Y656_R661W],0.819
9,SHGQDYLAGNK [GSTA2_Y147_V149A],0.693
10,TIWDSYTTNKV [GNB1_Y85_I80T],0.893
11,SMAKYYASGIA [ACADSB_Y373_E376G],0.791
12,GRSTFYWPRPR [GAGE12J_Y10_YF],0.64
13,AFDNLYYWDQD [ERBB2_Y1221],0.698
14,VEKEKYVSFIS [JMJD1C_Y596_M591V_YF],0.454
15,PLRANYLIARV [HLCS_Y635_D634N],1.29
16,CKLVDYDSARH [BIN1_Y150_R145C],0.592

# Next, values leading:
row,SH2 binding enrichment,Sequence
1,0.7,DLNATYCTIQG [U2SURP_Y634_R635C]
2,0.812,MVIPNYSSWTE [UROC1_Y185_R188W]
3,1.04,KLLLKYSFHDV [RNF213_Y4141]
4,0.453,PRQRRYVFFFS [PTEN_Y174_S170R_YF]
5,0.815,LFLASYCIGGG [UBD_Y161_C160S]
6,0.436,EGGFAYVPLKD [PRIM2_Y208_D204G]
7,0.837,GSIQQYIYKQE [PRG4_Y1271]
8,0.571,EERKTYVNTTL [TEK_Y1102]
9,0.64,TEYIQYVRRKN [MAX_Y73_M74V]
10,0.449,PSSRDYKDNIK [PIGN_Y227_H229D]
11,0.694,FAKSVYWDNTL [NUP107_Y296_E298D_YF]
12,0.534,IDAICYYRMEN [NPHS2_Y194]
13,0.753,CEHRGCLYLAI [TEK_Y897_Y897C]

# Test system: c-Abl (mouse);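 note: 11-residue human phosphosite peptides and single-mutation variants displayed on the E. coli surface, counted by deep sequencing, each peptide's frequency after selection divided by its frequency in the unselected input library; frequency after pTyr selection over input frequency; kinase dosed for 20-30% of maximal phosphorylation in three min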
# Assay: phosphorylation enrichment, bacterial display (enrichment ratio); higher = better substrate or ligand; peptides without Tyr show the background
row,Sequence,phosphorylation enrichment
1,YQLPYYNMVPS [BMPR1A_Y458],3.96
2,VMTSKYRGGGG [HBA1_Y141_L137M],0.384
3,FFSSEYHFVGG [CTSC_Y345_YF],1.71
4,DLNATYCTIQG [U2SURP_Y634_R635C],0.78
5,MVIPNYSSWTE [UROC1_Y185_R188W],0.999
6,KLLLKYSFHDV [RNF213_Y4141],0.878
7,HAVEDYQAIVD [CCT7_Y263_T259A],1.19
8,PRQRRYVFFFS [PTEN_Y174_S170R_YF],0.385
9,LFLASYCIGGG [UBD_Y161_C160S],0.886
10,EGGFAYVPLKD [PRIM2_Y208_D204G],0.699
11,PDMHSYMVRYN [GRIN2D_Y732],1.02
12,DRTVHYVDEKG [IFT140_Y216_G212R],0.46
13,GSIQQYIYKQE [PRG4_Y1271],0.486
14,SSSAIYDNPNL [DCP1B_Y191],22.5
15,EERKTYVNTTL [TEK_Y1102],0.779
16,KRLDGYVLEGW [IGSF9_Y656_R661W],0.532
17,TEYIQYVRRKN [MAX_Y73_M74V],0.875
18,SHGQDYLAGNK [GSTA2_Y147_V149A],0.452
19,PSSRDYKDNIK [PIGN_Y227_H229D],0.47
20,TIWDSYTTNKV [GNB1_Y85_I80T],0.699
21,SMAKYYASGIA [ACADSB_Y373_E376G],0.599
22,GRSTFYWPRPR [GAGE12J_Y10_YF],0.573
23,AFDNLYYWDQD [ERBB2_Y1221],0.81
24,VEKEKYVSFIS [JMJD1C_Y596_M591V_YF],0.521
25,PLRANYLIARV [HLCS_Y635_D634N],2.74
26,CKLVDYDSARH [BIN1_Y150_R145C],0.61
27,FAKSVYWDNTL [NUP107_Y296_E298D_YF],0.656
28,IDAICYYRMEN [NPHS2_Y194],0.927
29,CEHRGCLYLAI [TEK_Y897_Y897C],0.671
